{"source": "patent US8187838B2", "about": "“β-Galactoside-α2, 6-sialyltransferase, a gene encoding thereof, and a method for producing thereof” (Japan Tobacco Inc., priority 2006, dated 2012)", "type_in_all_cases": "biochemical", "key": {"asialofetuin": {"test_system": "asialofetuin", "experiment": "Sialic acid transfer to glycoprotein acceptor", "conditions": "25° C., 2 hours", "experimental": "As a glycosyl acceptor substrate, asialofetuin was used. Asialofetuin (2 mg) was dissolved in 1 ml of 20 mM Bis-Tris buffer (pH 6.0) and used as a glycosyl acceptor substrate solution. As a glycosyl donor substrate, CMP-NeuAc was used. The glycosyl acceptor substrate solution (40 μl), the glycosyl donor substrate (5 μl) and either of the enzyme solutions (5 μl, 10 mU each) were mixed and incubated at 25° C. for 2 hours to cause sialic acid transfer reaction. After completion of the reaction, the reaction solution was gel-filtered by being applied to a SEPHADEX® G-50 Superfine (0.8×18.0 cm) equilibrated with 0.1 M sodium chloride. A glycoprotein-containing eluate fraction (2-4 ml fraction) from gel filtration was collected and measured for its radioactivity using a liquid scintillation counter to quantify sialic acid transferred to the glycosyl acceptor substrate."}, "[1]": {"experiment": "Time-dependent induction of expression, sialyltransferase activity and productivity in E. coli homogenate", "conditions": "for Total enzyme activity (unit): 0.3 L culture; for Amount of transferred sialic acid / Radioactivity (CPM): 1 minute, 30° C.; for Radioactivity (CPM): crude enzyme diluted 200-fold", "experimental": "A time-dependent induction experiment of protein expression was performed on the ISH224-N0C0 and ISH224-N1C0 clones obtained in Example 2. A single colony of E. coli TB1 having the expression vector pTrc99A carrying each clone was inoculated into LB medium (6 ml) containing an antibiotic, ampicillin (final concentration 100 μg/mL), and pre-cultured at 30° C. for about 8 hours. This pre-cultured solution was inoculated into LB medium (300 ml) containing and antibiotic, ampicillin (final concentration 100 μg/mL) and cultured with shaking at 30° C. When OD600 reached around 0.5, IPTG (isopropyl-β-D(−)-thiogalactopyranoside, Wako Pure Chemical Industries, Ltd., Japan) was added at a final concentration of 1 mM, followed by culturing with shaking at 30° C. At 4, 6, 22 and 28 hours after culturing, the cells in each culture solution were collected by centrifugation. These cells were suspended in 20 mM Bis-Tris buffer (pH 6.0) containing 0.336% […] Triton® X-100, and ultrasonically homogenized under ice cooling. The resulting homogenate was defined as a crude enzyme solution, diluted 200-fold with 20 mM cacodylate buffer (pH 5.0) containing 0.336% Triton X®-100, and then provided for activity measurement. The reaction was carried out in duplicate. The reaction conditions are as indicated in the footnote of Table 2.\nReaction Conditions Reaction composition:\nReaction time: 1 minute Reaction temperature: 30° C."}, "[2]": {"experiment": "Confirmation of binding mode of sialic acid with pyridylaminated lactose, HPLC of product", "conditions": "crude enzyme solution, CMP-NeuAc, 25° C., 18 hours", "experimental": "To determine the binding mode of sialic acid, a reaction using PA-lactose as a substrate was then performed. The enzymatic reaction was accomplished by using the resulting crude enzyme solution and a pyridylaminated sugar chain as a glycosyl acceptor substrate. The pyridylaminated sugar chain used for analysis was pyridylaminated lactose (Galβ1-4Glc-PA, Takara Bio Inc., Japan). To 5 μl of the crude enzyme solution, 1.5 μl of 5 mM CMP-NeuAc and 1.5 μl of 10 pmol/μl glycosyl acceptor substrate were added and reacted at 25° C. for 18 hours. After the reaction, the reaction solution was treated at 100° C. for 2 minutes to inactivate the enzyme, followed by HPLC to analyze the reaction product. The HPLC system used was Shimadzu LC10A (Shimadzu Corporation, Japan) and the analytical column used was Takara PALPAK Type R (Takara Bio Inc., Japan). […] The analysis was performed under the following conditions: flow rate: 1 ml/min, column temperature: 40° C., detection: fluorescence (Ex: 320 nm, Em: 400 nm).\nThe crude enzyme solution prepared in (4) above from the ISH224-N1C0 or ISH224-N0C0 clone was used to examine whether sialyltransferase expressed by E. coli cells into which ISH224-N0C0/pTrc or ISH224-N1C0/pTrc had been introduced had β-galactoside-α2,6-sialyltransferase activity. […] As a result, PA-6′-sialyllactose (Neu5Acα2-6Galβ1-4Glc-PA) was detected, as in the case of Example 1."}}}
{"molecule": "ISH224-N1C0 (protein, listed as Photobacterium sp.) MSEENTQSIIKNDINKTIIDEEYVNLEPINQSNISFTKHSWVQTCGTQQLLTEQNKESISLSVVAPRLDDDEKYCFDFNGVSNKGEKYITKVTLNVVAPSLEVYVDHASLPTLQQLMDIIKSEEENPTAQRYIAWGRIVPTDEQMKELNITSFALINNHTPADLVQEIVKQAQTKHRLNVKLSSNTAHSFDNLVPILKELNSFNNVTVTNIDLYDDGSAEYVNLYNWRDTLNKTDNLKIGKDYLEDVINGINEDTSNTGTSSVYNWQKLYPANYHFLRKDYLTLEPSLHELRDYIGDSLKQMQWDGFKKFNSKQQELFLSIVNFDKQKLQNEYNSSNLPNFVFTGTTVWAGNHEREYYAKQQINVINNAINESSPHYLGNSYDLFFKGHPGGGIINTLIMQNYPSMVDIPSKISFEVLMMTDMLPDAVAGIASSLYFTIPAEKIKFIVFTSTETITDRETALRSPLVQVMIKLGIVKEENVLFWADLPNCETGVCIAV", "values": [{"measurement": "Radioactivity (cpm)", "setting": "asialofetuin; 10 mU enzyme, glycoprotein fraction after gel filtration", "value": 3051, "unit": "cpm"}, {"measurement": "sialic acid transfer to asialofetuin (in words)", "setting": "asialofetuin", "value": "higher efficiency of sialic acid transfer"}, {"measurement": "fold higher productivity than Pasteurella multocida-derived α2,3-sialyltransferase (6,000 U/L)", "setting": "[1]", "value": "about 1.8 fold"}, {"measurement": "fold higher productivity than Photobacterium damselae-derived recombinant β-galactoside-α2,6-sialyltransferase (224.5 U/L)", "setting": "[1]", "value": "about 48 fold"}, {"measurement": "Enzyme concentration in crude enzyme solution (unit/ml)", "setting": "[1]; 4 hours after IPTG addition", "value": 6.8, "unit": "unit/ml"}, {"measurement": "Productivity (U/L of medium)", "setting": "[1]; 4 hours after IPTG addition", "value": "589 U/L of medium"}, {"measurement": "Total enzyme activity (unit)", "setting": "[1]; 4 hours after IPTG addition", "value": 177, "unit": "unit"}, {"measurement": "Amount of transferred sialic acid", "setting": "[1]; 4 hours after IPTG addition", "value": 0.17, "unit": "nmol"}, {"measurement": "Radioactivity (CPM)", "setting": "[1]; 4 hours after IPTG addition", "value": 142.5, "unit": "CPM"}, {"measurement": "Enzyme concentration in crude enzyme solution (unit/ml)", "setting": "[1]; 6 hours after IPTG addition", "value": 14.8, "unit": "unit/ml"}, {"measurement": "Productivity (U/L of medium)", "setting": "[1]; 6 hours after IPTG addition", "value": "1285 U/L of medium"}, {"measurement": "Total enzyme activity (unit)", "setting": "[1]; 6 hours after IPTG addition", "value": 385, "unit": "unit"}, {"measurement": "Amount of transferred sialic acid", "setting": "[1]; 6 hours after IPTG addition", "value": 0.37, "unit": "nmol"}, {"measurement": "Radioactivity (CPM)", "setting": "[1]; 6 hours after IPTG addition", "value": 311.0, "unit": "CPM"}, {"measurement": "Enzyme concentration in crude enzyme solution (unit/ml)", "setting": "[1]; 22 hours after IPTG addition", "value": 86.2, "unit": "unit/ml"}, {"measurement": "Productivity (U/L of medium)", "setting": "[1]; 22 hours after IPTG addition", "value": "10776 U/L of medium"}, {"measurement": "Total enzyme activity (unit)", "setting": "[1]; 22 hours after IPTG addition", "value": 3233, "unit": "unit"}, {"measurement": "Amount of transferred sialic acid", "setting": "[1]; 22 hours after IPTG addition", "value": 2.16, "unit": "nmol"}, {"measurement": "Radioactivity (CPM)", "setting": "[1]; 22 hours after IPTG addition", "value": 1809.0, "unit": "CPM"}, {"measurement": "Productivity (U/L of medium)", "setting": "[1]; 22 hours after IPTG addition, listed as ISH224-N1C0 clone", "value": "10,776 U/L of medium"}, {"measurement": "Enzyme concentration in crude enzyme solution (unit/ml)", "setting": "[1]; 28 hours after IPTG addition", "value": 69.5, "unit": "unit/ml"}, {"measurement": "Productivity (U/L of medium)", "setting": "[1]; 28 hours after IPTG addition", "value": "8946 U/L of medium"}, {"measurement": "Total enzyme activity (unit)", "setting": "[1]; 28 hours after IPTG addition", "value": 2684, "unit": "unit"}, {"measurement": "Amount of transferred sialic acid", "setting": "[1]; 28 hours after IPTG addition", "value": 1.74, "unit": "nmol"}, {"measurement": "Radioactivity (CPM)", "setting": "[1]; 28 hours after IPTG addition", "value": 1459.0, "unit": "CPM"}, {"measurement": "time of maximum β-galactoside-α2,6-sialyltransferase activity after IPTG addition", "setting": "[1]; culture at 30° C., 1 mM IPTG", "value": 22, "unit": "h"}, {"measurement": "β-galactoside-α2,6-sialyltransferase activity (PA-6′-sialyllactose detected)", "setting": "[2]", "value": "found to have β-galactoside-α2,6-sialyltransferase activity"}]}
